US20040018530
Read-outs that look alike come from different tables or passages of the source.

Tests used:
[1] = system: IgE (immunoglobulin E, monoclonal, kappa light chain) (Homo sapiens); details: affinity capillary electrophoresis with LIF; PBS, 1 mM MgCl2, 40 mM NaCl, pH 8.0, 25 C
[2] = system: IgE (immunoglobulin E, monoclonal, kappa light chain) (Homo sapiens); details: affinity capillary electrophoresis with LIF; PBS, 1 mM MgCl2, 35 mM NaCl, pH 8.0, 25 C
[3] = system: IgE (immunoglobulin E, monoclonal, kappa light chain) (Homo sapiens); details: affinity capillary electrophoresis with LIF; PBS, 1 mM MgCl2, pH 8.0, 25 C; literature value 10 nM; cited from earlier work
[4] = system: IgE (immunoglobulin E, monoclonal, kappa light chain) (Homo sapiens); details: CE-UV binding assay; rounds 1, 2, 3 gave 62, 96, ~100% bound; PBS, 1 mM MgCl2, pH 8.0, 25 C
[5] = system: IgE (immunoglobulin E, monoclonal, kappa light chain) (Homo sapiens); details: CE-UV binding assay up to 2.5 uM IgE; round 1 pool 33% bound; PBS, 1 mM MgCl2, pH 8.0, 25 C
[6] = system: IgE (immunoglobulin E, monoclonal, kappa light chain) (Homo sapiens); details: CE-UV binding assay up to 1.1 uM IgE; round 1 pool 67% bound; PBS, 1 mM MgCl2, pH 8.0, 25 C

## AGCAGCACAGAGGTCAGATGGATGGGGGGGTCTAACGTGCGATCTGCCGACTTTATCCTGCCTATGCGTGCTACCGTGAA [Clone 2.27]
[1]
  Kd: 52 nM

## AGCAGCACAGAGGTCAGATGGTAATTTTCGCTGCGATTAGGCTTGTGACAAAATTACTATCCTATGCGTGCTACCGTGAA [Clone 1.8]
[2]
  Kd: 293 nM

## CTACCTACGATCTGACTAGCGGGGCACGTTTATCCGTCCCTCCTAGTGGCGTGCCCCGCTTACTCTCATGTAGTTCC [conventional SELEX IgE aptamer]
[3]
  Kd: 4 nM

## AGCAGCACAGAGGTCAGATGNNNNNNNNNNNNNNNNNNNNNNNNNNNNNNNNNNNNNNNNCCTATGCGTGCTACCGTGAA [CE-SELEX experiment 3 round 4 enriched pool]
[4]
  binding: 100 % bound

## AGCAGCACAGAGGTCAGATGNNNNNNNNNNNNNNNNNNNNNNNNNNNNNNNNNNNNNNNNCCTATGCGTGCTACCGTGAA [CE-SELEX experiment 1 round 2 enriched pool]
[5]
  binding: 100 % bound

## AGCAGCACAGAGGTCAGATGNNNNNNNNNNNNNNNNNNNNNNNNNNNNNNNNNNNNNNNNCCTATGCGTGCTACCGTGAA [CE-SELEX experiment 2 round 2 enriched pool]
[6]
  binding: 100 % bound
